Legend:
[1] = target: T1, HLA-A*0201 molecule expressed on human T2 cells (human); test: T2 cells (HLA-A*0201), peptide at 100 µM, anti-HLA-A2 flow cytometry
T1 construct: also called HLA-A2
Protocol: (§1) T2 cells (5.104 cells per well) are incubated with decreasing concentrations of peptides from 100 μM to 0.1 μM (4 points: 100 μM, 10 μM, 1 μM, 0.1 μM) in serum-free medium (TexMacs) supplemented with […] of β2 Microglobulin at 37° C. for 16 hours. Cells are then washed two times and marked with the anti-HLA-A2 antibody coupled to PE (clone BB7.2, BD Pharmagen).
(§2) The relative affinity is then determined as follows: […]

[2] = target: T1, HLA-A*0201 molecule expressed on human …; test: T2 cells (HLA-A*0201), peptide at 1 µM, anti-HLA-A2 flow cytometry
Protocol: as §1, §2

[3] = target: T1, HLA-A*0201 molecule expressed on human …; test: T2 cells (HLA-A*0201), peptide at 0.1 µM, anti-HLA-A2 flow cytometry
Protocol: as §1, §2

[4] = target: T1, HLA-A*0201 molecule expressed on human …; test: T2 cells (HLA-A*0201), peptide titration, anti-HLA-A2 flow cytometry
Protocol: as §1, §2

[5] = target: T1, HLA-A*0201 molecule expressed on human …; test: T2 cells (HLA-A*0201), peptide at 10 µM, anti-HLA-A2 flow cytometry
Protocol: as §1, §2

WVFEHPETL [CD22-H1]
mean relative fluorescence intensity (HIV peptide = 100) [1]: 158 % of HIV pol 589-597 at 100 µM | mean relative fluorescence intensity (HIV peptide = 100) [2]: 10 % of HIV pol 589-597 at 100 µM | mean relative fluorescence intensity (HIV peptide = 100) [3]: 2 % of HIV pol 589-597 at 100 µM | concentration of peptide that induces 20% of HLA-A2 expression [4]: 1.97 µM | in vitro binding affinity (relative to HIV pol reference peptide) [4]: 5.3 ratio to HIV pol 589-597 | mean relative fluorescence intensity (HIV peptide = 100) [5]: 71 % of HIV pol 589-597 at 100 µM

TLLFLTPML [CD19-B2]
mean relative fluorescence intensity (HIV peptide = 100) [2]: 41 % of HIV pol 589-597 at 100 µM | mean relative fluorescence intensity (HIV peptide = 100) [3]: 12 % of HIV pol 589-597 at 100 µM | concentration of peptide that induces 20% of HLA-A2 expression [4]: 0.38 µM | in vitro binding affinity (relative to HIV pol reference peptide) [4]: 1 ratio to HIV pol 589-597 | mean relative fluorescence intensity (HIV peptide = 100) [5]: 114 % of HIV pol 589-597 at 100 µM

SLVGILHLQ [CD19-H1]
mean relative fluorescence intensity (HIV peptide = 100) [1]: 0 % of HIV pol 589-597 at 100 µM | mean relative fluorescence intensity (HIV peptide = 100) [2]: 0 % of HIV pol 589-597 at 100 µM | mean relative fluorescence intensity (HIV peptide = 100) [3]: 1 % of HIV pol 589-597 at 100 µM | mean relative fluorescence intensity (HIV peptide = 100) [5]: 1 % of HIV pol 589-597 at 100 µM

LMFGAPALV [TNFRSF13C-B1]
mean relative fluorescence intensity (HIV peptide = 100) [1]: 90 % of HIV pol 589-597 at 100 µM | mean relative fluorescence intensity (HIV peptide = 100) [2]: 7 % of HIV pol 589-597 at 100 µM | mean relative fluorescence intensity (HIV peptide = 100) [3]: 1 % of HIV pol 589-597 at 100 µM | concentration of peptide that induces 20% of HLA-A2 expression [4]: 4.35 µM | in vitro binding affinity (relative to HIV pol reference peptide) [4]: 1.1 ratio to HIV pol 589-597 | mean relative fluorescence intensity (HIV peptide = 100) [5]: 37 % of HIV pol 589-597 at 100 µM

PLPGLLFGA [TNFRSF13C-H3]
mean relative fluorescence intensity (HIV peptide = 100) [1]: 8.4 % of HIV pol 589-597 at 100 µM | mean relative fluorescence intensity (HIV peptide = 100) [2]: 0 % of HIV pol 589-597 at 100 µM | mean relative fluorescence intensity (HIV peptide = 100) [3]: 0 % of HIV pol 589-597 at 100 µM | mean relative fluorescence intensity (HIV peptide = 100) [5]: 0 % of HIV pol 589-597 at 100 µM

YLFLGILSL [MS4A1-B5]
mean relative fluorescence intensity (HIV peptide = 100) [2]: 0.2 % of HIV pol 589-597 at 100 µM | mean relative fluorescence intensity (HIV peptide = 100) [3]: 0 % of HIV pol 589-597 at 100 µM | concentration of peptide that induces 20% of HLA-A2 expression [4]: 6.77 µM | in vitro binding affinity (relative to HIV pol reference peptide) [4]: 0.7 ratio to HIV pol 589-597 | mean relative fluorescence intensity (HIV peptide = 100) [5]: 29.8 % of HIV pol 589-597 at 100 µM

YVFEHPELL [CD22-B11]
mean relative fluorescence intensity (HIV peptide = 100) [1]: 141 % of HIV pol 589-597 at 100 µM | mean relative fluorescence intensity (HIV peptide = 100) [2]: 60.5 % of HIV pol 589-597 at 100 µM | mean relative fluorescence intensity (HIV peptide = 100) [3]: 6.4 % of HIV pol 589-597 at 100 µM | concentration of peptide that induces 20% of HLA-A2 expression [4]: 0.2 µM | in vitro binding affinity (relative to HIV pol reference peptide) [4]: 0.5 ratio to HIV pol 589-597 | mean relative fluorescence intensity (HIV peptide = 100) [5]: 124 % of HIV pol 589-597 at 100 µM

GLAFVPLQI [CD37-H1]
mean relative fluorescence intensity (HIV peptide = 100) [1]: 153 % of HIV pol 589-597 at 100 µM | mean relative fluorescence intensity (HIV peptide = 100) [2]: 0 % of HIV pol 589-597 at 100 µM | mean relative fluorescence intensity (HIV peptide = 100) [3]: 2 % of HIV pol 589-597 at 100 µM | concentration of peptide that induces 20% of HLA-A2 expression [4]: 7.35 µM | in vitro binding affinity (relative to HIV pol reference peptide) [4]: 17.5 ratio to HIV pol 589-597 | mean relative fluorescence intensity (HIV peptide = 100) [5]: 27 % of HIV pol 589-597 at 100 µM

LQMGGFYLL [CD19-B7]
mean relative fluorescence intensity (HIV peptide = 100) [1]: 31.8 % of HIV pol 589-597 at 100 µM | mean relative fluorescence intensity (HIV peptide = 100) [2]: 4.8 % of HIV pol 589-597 at 100 µM | mean relative fluorescence intensity (HIV peptide = 100) [3]: 6 % of HIV pol 589-597 at 100 µM | concentration of peptide that induces 20% of HLA-A2 expression [4]: 49.6 µM | in vitro binding affinity (relative to HIV pol reference peptide) [4]: 6.8 ratio to HIV pol 589-597 | mean relative fluorescence intensity (HIV peptide = 100) [5]: 4.5 % of HIV pol 589-597 at 100 µM

LLFGAPALL (also called TNFRSF13-H1) [TNFRSF13C-H1]
mean relative fluorescence intensity (HIV peptide = 100) [1]: 92 % of HIV pol 589-597 at 100 µM | mean relative fluorescence intensity (HIV peptide = 100) [2]: 2 % of HIV pol 589-597 at 100 µM | mean relative fluorescence intensity (HIV peptide = 100) [3]: 0 % of HIV pol 589-597 at 100 µM | concentration of peptide that induces 20% of HLA-A2 expression [4]: 11.8 µM | in vitro binding affinity (relative to HIV pol reference peptide) [4]: 3 ratio to HIV pol 589-597 | mean relative fluorescence intensity (HIV peptide = 100) [5]: 17 % of HIV pol 589-597 at 100 µM

IMNSLSLFA [MS4A1-H4]
mean relative fluorescence intensity (HIV peptide = 100) [1]: 13.4 % of HIV pol 589-597 at 100 µM | mean relative fluorescence intensity (HIV peptide = 100) [2]: 0.3 % of HIV pol 589-597 at 100 µM | mean relative fluorescence intensity (HIV peptide = 100) [3]: 0 % of HIV pol 589-597 at 100 µM | mean relative fluorescence intensity (HIV peptide = 100) [5]: 2.6 % of HIV pol 589-597 at 100 µM

YLAYLIFEL [CD19-B6]
mean relative fluorescence intensity (HIV peptide = 100) [2]: 5.4 % of HIV pol 589-597 at 100 µM | mean relative fluorescence intensity (HIV peptide = 100) [3]: 0 % of HIV pol 589-597 at 100 µM | concentration of peptide that induces 20% of HLA-A2 expression [4]: 3.76 µM | in vitro binding affinity (relative to HIV pol reference peptide) [4]: 0.4 ratio to HIV pol 589-597 | mean relative fluorescence intensity (HIV peptide = 100) [5]: 52.5 % of HIV pol 589-597 at 100 µM

ILPGLLFGL [TNFRSF13C-B31]
mean relative fluorescence intensity (HIV peptide = 100) [1]: 104 % of HIV pol 589-597 at 100 µM | mean relative fluorescence intensity (HIV peptide = 100) [2]: 1.5 % of HIV pol 589-597 at 100 µM | mean relative fluorescence intensity (HIV peptide = 100) [3]: 0 % of HIV pol 589-597 at 100 µM | concentration of peptide that induces 20% of HLA-A2 expression [4]: 1.6 µM | in vitro binding affinity (relative to HIV pol reference peptide) [4]: 0.4 ratio to HIV pol 589-597 | mean relative fluorescence intensity (HIV peptide = 100) [5]: 71.9 % of HIV pol 589-597 at 100 µM

SLVGILHII [CD19-B11]
mean relative fluorescence intensity (HIV peptide = 100) [1]: 108 % of HIV pol 589-597 at 100 µM | mean relative fluorescence intensity (HIV peptide = 100) [2]: 5.2 % of HIV pol 589-597 at 100 µM | mean relative fluorescence intensity (HIV peptide = 100) [3]: 0 % of HIV pol 589-597 at 100 µM | concentration of peptide that induces 20% of HLA-A2 expression [4]: 5.97 µM | in vitro binding affinity (relative to HIV pol reference peptide) [4]: 0.8 ratio to HIV pol 589-597 | mean relative fluorescence intensity (HIV peptide = 100) [5]: 30.5 % of HIV pol 589-597 at 100 µM

FLLFLTPME [CD19-H2]
mean relative fluorescence intensity (HIV peptide = 100) [1]: 7 % of HIV pol 589-597 at 100 µM | mean relative fluorescence intensity (HIV peptide = 100) [2]: 3 % of HIV pol 589-597 at 100 µM | mean relative fluorescence intensity (HIV peptide = 100) [5]: 7 % of HIV pol 589-597 at 100 µM

GMAFVPLLL (also called CD37-B11i) [CD37-B11]
mean relative fluorescence intensity (HIV peptide = 100) [1]: 57.8 % of HIV pol 589-597 at 100 µM | mean relative fluorescence intensity (HIV peptide = 100) [2]: 1.6 % of HIV pol 589-597 at 100 µM | mean relative fluorescence intensity (HIV peptide = 100) [3]: 0 % of HIV pol 589-597 at 100 µM | concentration of peptide that induces 20% of HLA-A2 expression [4]: 2.3 µM | in vitro binding affinity (relative to HIV pol reference peptide) [4]: 3 ratio to HIV pol 589-597 | mean relative fluorescence intensity (HIV peptide = 100) [5]: 48.9 % of HIV pol 589-597 at 100 µM

ILNSLSLLL [MS4A1-B41]
concentration of peptide that induces 20% of HLA-A2 expression [4]: 2.45 µM | in vitro binding affinity (relative to HIV pol reference peptide) [4]: 0.3 ratio to HIV pol 589-597

LLVGILHLV [CD19-B1]
mean relative fluorescence intensity (HIV peptide = 100) [1]: 93 % of HIV pol 589-597 at 100 µM | mean relative fluorescence intensity (HIV peptide = 100) [2]: 8 % of HIV pol 589-597 at 100 µM | concentration of peptide that induces 20% of HLA-A2 expression [4]: 3.7 µM | in vitro binding affinity (relative to HIV pol reference peptide) [4]: 0.7 ratio to HIV pol 589-597 | mean relative fluorescence intensity (HIV peptide = 100) [5]: 40 % of HIV pol 589-597 at 100 µM

TLAYLIFCL [CD19-H6]
mean relative fluorescence intensity (HIV peptide = 100) [2]: 4.1 % of HIV pol 589-597 at 100 µM | mean relative fluorescence intensity (HIV peptide = 100) [3]: 0 % of HIV pol 589-597 at 100 µM | concentration of peptide that induces 20% of HLA-A2 expression [4]: 4.98 µM | in vitro binding affinity (relative to HIV pol reference peptide) [4]: 0.5 ratio to HIV pol 589-597 | mean relative fluorescence intensity (HIV peptide = 100) [5]: 39.6 % of HIV pol 589-597 at 100 µM

FLAFVPLQL (also called CD37-B1i) [CD37-B1]
mean relative fluorescence intensity (HIV peptide = 100) [1]: 157 % of HIV pol 589-597 at 100 µM | mean relative fluorescence intensity (HIV peptide = 100) [2]: 35 % of HIV pol 589-597 at 100 µM | mean relative fluorescence intensity (HIV peptide = 100) [3]: 5 % of HIV pol 589-597 at 100 µM | concentration of peptide that induces 20% of HLA-A2 expression [4]: 0.65 µM | in vitro binding affinity (relative to HIV pol reference peptide) [4]: 1.6 ratio to HIV pol 589-597 | mean relative fluorescence intensity (HIV peptide = 100) [5]: 106 % of HIV pol 589-597 at 100 µM

IALGGLLMI [MS4A1-H1]
mean relative fluorescence intensity (HIV peptide = 100) [2]: 0.7 % of HIV pol 589-597 at 100 µM | mean relative fluorescence intensity (HIV peptide = 100) [3]: 0 % of HIV pol 589-597 at 100 µM | mean relative fluorescence intensity (HIV peptide = 100) [5]: 1.9 % of HIV pol 589-597 at 100 µM

Reference: US20220323561A1 (ENTEROME S A, published 2022)
